Measured values taken from the supplement of paper PMC10567573.

B1: TOR1AIP2 (parent)
chain: SPGHSSAGQEGEDTLRRRLLAPEA

Variants of: B1
Assay: protein stability index of a GFP-peptide fusion (GPS, HEK-293T) (PSI 1-6); higher = more stable
Conditions: c terminus: a fixed tail appended
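Further: lentivirally expressed fusions sorted by FACS into six bins by GFP to DsRed ratio, PSI derived from sequencing read proportions per bin multiplied by bin number.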

Variant	protein stability index
SPGHSSAMQEGEDTLRRRLLAPEA [G8M]	4.05
SPGHSSAQQEGEDTLRRRLLAPEA [G8Q]	4.33
SPGHSSAWQEGEDTLRRRLLAPEA [G8W]	4.19
SPGHSSAPQEGEDTLRRRLLAPEA [G8P]	4.53
SPGHSSARQEGEDTLRRRLLAPEA [G8R]	4
SPGHSSAAQEGEDTLRRRLLAPEA [G8A]	4.24
SPGHSSANQEGEDTLRRRLLAPEA [G8N]	4.05
SPGHSSACQEGEDTLRRRLLAPEA [G8C]	4.46
SPGHSSADQEGEDTLRRRLLAPEA [G8D]	4.51
SPGHSSAVQEGEDTLRRRLLAPEA [G8V]	4.43
SPGHSSATQEGEDTLRRRLLAPEA [G8T]	4.61
SPGHSSAHQEGEDTLRRRLLAPEA [G8H]	4.69
SPGHSSAIQEGEDTLRRRLLAPEA [G8I]	4.53
SPGHSSAKQEGEDTLRRRLLAPEA [G8K]	4.19
SPGHSSAFQEGEDTLRRRLLAPEA [G8F]	3.34
SPGHSSALQEGEDTLRRRLLAPEA [G8L]	4.21
SPGHSSASQEGEDTLRRRLLAPEA [G8S]	4.42
SPGHSSAEQEGEDTLRRRLLAPEA [G8E]	4.5
SPGHSSAYQEGEDTLRRRLLAPEA [G8Y]	3.79
SPGHSSAGQEGQDTLRRRLLAPEA [E12Q]	3.38
SPGHSSAGQEGIDTLRRRLLAPEA [E12I]	3.73
SPGHSSAGQEGPDTLRRRLLAPEA [E12P]	3.59
SPGHSSAGQEGFDTLRRRLLAPEA [E12F]	3.1
SPGHSSAGQEGHDTLRRRLLAPEA [E12H]	3.73

Variant	protein stability index
SPGHSSAGQEGLDTLRRRLLAPEA [E12L]	3.33
SPGHSSAGQEGRDTLRRRLLAPEA [E12R]	3.84
SPGHSSAGQEGMDTLRRRLLAPEA [E12M]	3.53
SPGHSSAGQEGCDTLRRRLLAPEA [E12C]	4
SPGHSSAGQEGDDTLRRRLLAPEA [E12D]	3.97
SPGHSSAGQEGKDTLRRRLLAPEA [E12K]	3.98
SPGHSSAGQEGADTLRRRLLAPEA [E12A]	3.48
SPGHSSAGQEGNDTLRRRLLAPEA [E12N]	3.81
SPGHSSAGQEGGDTLRRRLLAPEA [E12G]	3.73
SYGHSSAGQEGEDTLRRRLLAPEA [P2Y]	2.24
SWGHSSAGQEGEDTLRRRLLAPEA [P2W]	2.65
SVGHSSAGQEGEDTLRRRLLAPEA [P2V]	2.75
SPGDSSAGQEGEDTLRRRLLAPEA [H4D]	4.89
SPGASSAGQEGEDTLRRRLLAPEA [H4A]	4.22
SPGNSSAGQEGEDTLRRRLLAPEA [H4N]	4.13
SPGCSSAGQEGEDTLRRRLLAPEA [H4C]	3.71
SPGLSSAGQEGEDTLRRRLLAPEA [H4L]	3.85
SPGSSSAGQEGEDTLRRRLLAPEA [H4S]	4.39
SPGYSSAGQEGEDTLRRRLLAPEA [H4Y]	3.84
SPGRSSAGQEGEDTLRRRLLAPEA [H4R]	3.76
SPGISSAGQEGEDTLRRRLLAPEA [H4I]	3.92
SPGTSSAGQEGEDTLRRRLLAPEA [H4T]	4.14
SPGVSSAGQEGEDTLRRRLLAPEA [H4V]	3.81
SPGWSSAGQEGEDTLRRRLLAPEA [H4W]	3.98

Variant	protein stability index
SPGESSAGQEGEDTLRRRLLAPEA [H4E]	4.15
SPGKSSAGQEGEDTLRRRLLAPEA [H4K]	3.52
SPGGSSAGQEGEDTLRRRLLAPEA [H4G]	4.08
SPGMSSAGQEGEDTLRRRLLAPEA [H4M]	3.38
SPGPSSAGQEGEDTLRRRLLAPEA [H4P]	4.49
SPGQSSAGQEGEDTLRRRLLAPEA [H4Q]	3.82
SPGFSSAGQEGEDTLRRRLLAPEA [H4F]	4.3
SPGHSPAGQEGEDTLRRRLLAPEA [S6P]	4.26
SPGHSMAGQEGEDTLRRRLLAPEA [S6M]	4.02
SPGHSKAGQEGEDTLRRRLLAPEA [S6K]	3.97
SPGHSYAGQEGEDTLRRRLLAPEA [S6Y]	3.73
SPGHSFAGQEGEDTLRRRLLAPEA [S6F]	2.94
SPGHSCAGQEGEDTLRRRLLAPEA [S6C]	3.9
SPGHSEAGQEGEDTLRRRLLAPEA [S6E]	4.51
SPGHSWAGQEGEDTLRRRLLAPEA [S6W]	3.97
SPGHSDAGQEGEDTLRRRLLAPEA [S6D]	4.48
SPGHSRAGQEGEDTLRRRLLAPEA [S6R]	4.46
SPGHSVAGQEGEDTLRRRLLAPEA [S6V]	3.24
SPGHSQAGQEGEDTLRRRLLAPEA [S6Q]	4.65
SPGHSHAGQEGEDTLRRRLLAPEA [S6H]	4.23
SPGHSIAGQEGEDTLRRRLLAPEA [S6I]	3.42
SPGHSLAGQEGEDTLRRRLLAPEA [S6L]	4.18
SPGHSAAGQEGEDTLRRRLLAPEA [S6A]	4.36
SPGHSTAGQEGEDTLRRRLLAPEA [S6T]	4.36

Variant	protein stability index
SPGHSNAGQEGEDTLRRRLLAPEA [S6N]	3.75
SPGHSGAGQEGEDTLRRRLLAPEA [S6G]	3.66
SPCHSSAGQEGEDTLRRRLLAPEA [G3C]	3.32
SPKHSSAGQEGEDTLRRRLLAPEA [G3K]	3.67
SPFHSSAGQEGEDTLRRRLLAPEA [G3F]	3.85
SPNHSSAGQEGEDTLRRRLLAPEA [G3N]	4.16
SPAHSSAGQEGEDTLRRRLLAPEA [G3A]	3.74
SPIHSSAGQEGEDTLRRRLLAPEA [G3I]	3.51
SPEHSSAGQEGEDTLRRRLLAPEA [G3E]	4.65
SPWHSSAGQEGEDTLRRRLLAPEA [G3W]	4.3
SPLHSSAGQEGEDTLRRRLLAPEA [G3L]	3.78
SPYHSSAGQEGEDTLRRRLLAPEA [G3Y]	3.83
SPVHSSAGQEGEDTLRRRLLAPEA [G3V]	3.24
SPDHSSAGQEGEDTLRRRLLAPEA [G3D]	4.73
SPMHSSAGQEGEDTLRRRLLAPEA [G3M]	4.48
SPSHSSAGQEGEDTLRRRLLAPEA [G3S]	4.02
SPTHSSAGQEGEDTLRRRLLAPEA [G3T]	3.59
SPPHSSAGQEGEDTLRRRLLAPEA [G3P]	4.69
SPHHSSAGQEGEDTLRRRLLAPEA [G3H]	4.21
SPQHSSAGQEGEDTLRRRLLAPEA [G3Q]	4.46
SPRHSSAGQEGEDTLRRRLLAPEA [G3R]	2.93
SPGHSSAGQWGEDTLRRRLLAPEA [E10W]	3.42
SPGHSSAGQYGEDTLRRRLLAPEA [E10Y]	3.51
SPGHSSAGQFGEDTLRRRLLAPEA [E10F]	3.68

Variant	protein stability index
SPGHSSAGQMGEDTLRRRLLAPEA [E10M]	3.58
SPGHSSAGQGGEDTLRRRLLAPEA [E10G]	3.91
SPGHSSAGQTGEDTLRRRLLAPEA [E10T]	3.81
SPGHSSAGQHGEDTLRRRLLAPEA [E10H]	3.61
SPGHSSAGQIGEDTLRRRLLAPEA [E10I]	3.63
SPGHSSAGQSGEDTLRRRLLAPEA [E10S]	4.06
SPGHSSAGQNGEDTLRRRLLAPEA [E10N]	3.72
SPGHSSAGQRGEDTLRRRLLAPEA [E10R]	3.62
SPGHSSAGQLGEDTLRRRLLAPEA [E10L]	3.31
SPGHSSAGQKGEDTLRRRLLAPEA [E10K]	3.27
SPGHSSAGQAGEDTLRRRLLAPEA [E10A]	3.75
SPGHSSAGQVGEDTLRRRLLAPEA [E10V]	4.04
SPGHSSAGQDGEDTLRRRLLAPEA [E10D]	3.94
SPGHSSAGQQGEDTLRRRLLAPEA [E10Q]	3.88
SPGHSSAGQPGEDTLRRRLLAPEA [E10P]	3.94
SPGHSSAGQCGEDTLRRRLLAPEA [E10C]	2.67
SPGHSSAGQESEDTLRRRLLAPEA [G11S]	4.48
SPGHSSAGQEAEDTLRRRLLAPEA [G11A]	4
SPGHSSAGQEDEDTLRRRLLAPEA [G11D]	4.64
SPGHSSAGQEQEDTLRRRLLAPEA [G11Q]	4.38
SPGHSSAGQEWEDTLRRRLLAPEA [G11W]	3.6
SPGHSSAGQEMEDTLRRRLLAPEA [G11M]	4.15
SPGHSSAGQEEEDTLRRRLLAPEA [G11E]	4.6
SPGHSSAGQELEDTLRRRLLAPEA [G11L]	4.13

Variant	protein stability index
SPGHSSAGQETEDTLRRRLLAPEA [G11T]	4.62
SPGHSSAGQECEDTLRRRLLAPEA [G11C]	3.88
SPGHSSAGQEREDTLRRRLLAPEA [G11R]	4.64
SPGHSSAGQEKEDTLRRRLLAPEA [G11K]	4.5
SPGHSSAGQEFEDTLRRRLLAPEA [G11F]	3.49
SPGHSSAGQEYEDTLRRRLLAPEA [G11Y]	3.39
SPGHSSAGQENEDTLRRRLLAPEA [G11N]	4.46
SPGHSSAGQEPEDTLRRRLLAPEA [G11P]	4.05
SPGHSSAGQEVEDTLRRRLLAPEA [G11V]	4.04
SPGHSSAGQEHEDTLRRRLLAPEA [G11H]	4.07
SPGHSSAGQEIEDTLRRRLLAPEA [G11I]	3.82
SPGHDSAGQEGEDTLRRRLLAPEA [S5D]	4.75
SPGHNSAGQEGEDTLRRRLLAPEA [S5N]	4.42
SPGHASAGQEGEDTLRRRLLAPEA [S5A]	3.84
SPGHYSAGQEGEDTLRRRLLAPEA [S5Y]	4.09
SPGHHSAGQEGEDTLRRRLLAPEA [S5H]	4.35
SPGHISAGQEGEDTLRRRLLAPEA [S5I]	3.78
SPGHWSAGQEGEDTLRRRLLAPEA [S5W]	4.63
SPGHESAGQEGEDTLRRRLLAPEA [S5E]	4.64
SPGHTSAGQEGEDTLRRRLLAPEA [S5T]	4.46
SPGHGSAGQEGEDTLRRRLLAPEA [S5G]	4.11
SPGHLSAGQEGEDTLRRRLLAPEA [S5L]	3.9
SPGHKSAGQEGEDTLRRRLLAPEA [S5K]	3.86
SPGHRSAGQEGEDTLRRRLLAPEA [S5R]	4

Variant	protein stability index
SPGHPSAGQEGEDTLRRRLLAPEA [S5P]	4.14
SPGHMSAGQEGEDTLRRRLLAPEA [S5M]	4.49
SPGHCSAGQEGEDTLRRRLLAPEA [S5C]	3.37
SPGHVSAGQEGEDTLRRRLLAPEA [S5V]	4.3
SPGHFSAGQEGEDTLRRRLLAPEA [S5F]	4
SPGHQSAGQEGEDTLRRRLLAPEA [S5Q]	4.64
SPGHSSCGQEGEDTLRRRLLAPEA [A7C]	3.45
SPGHSSMGQEGEDTLRRRLLAPEA [A7M]	3.79
SPGHSSVGQEGEDTLRRRLLAPEA [A7V]	4.25
SPGHSSLGQEGEDTLRRRLLAPEA [A7L]	3.73
SPGHSSDGQEGEDTLRRRLLAPEA [A7D]	4.56
SPGHSSIGQEGEDTLRRRLLAPEA [A7I]	3.92
SPGHSSPGQEGEDTLRRRLLAPEA [A7P]	3.42
SPGHSSQGQEGEDTLRRRLLAPEA [A7Q]	4.24
SPGHSSNGQEGEDTLRRRLLAPEA [A7N]	3.76
SPGHSSGGQEGEDTLRRRLLAPEA [A7G]	4.21
SPGHSSTGQEGEDTLRRRLLAPEA [A7T]	4.18
SPGHSSHGQEGEDTLRRRLLAPEA [A7H]	3.77
SPGHSSYGQEGEDTLRRRLLAPEA [A7Y]	3.9
SPGHSSKGQEGEDTLRRRLLAPEA [A7K]	3.66
SPGHSSWGQEGEDTLRRRLLAPEA [A7W]	3.89
SPGHSSRGQEGEDTLRRRLLAPEA [A7R]	3.82
SPGHSSSGQEGEDTLRRRLLAPEA [A7S]	4.01
SPGHSSEGQEGEDTLRRRLLAPEA [A7E]	4.47

Variant	protein stability index
SPGHSSFGQEGEDTLRRRLLAPEA [A7F]	4.16
SPGHSSAGVEGEDTLRRRLLAPEA [Q9V]	3.98
SPGHSSAGPEGEDTLRRRLLAPEA [Q9P]	4.53
SPGHSSAGREGEDTLRRRLLAPEA [Q9R]	3.5
SPGHSSAGSEGEDTLRRRLLAPEA [Q9S]	4.24
SPGHSSAGAEGEDTLRRRLLAPEA [Q9A]	4.35
SPGHSSAGHEGEDTLRRRLLAPEA [Q9H]	3.83
SPGHSSAGKEGEDTLRRRLLAPEA [Q9K]	4.02
SPGHSSAGNEGEDTLRRRLLAPEA [Q9N]	4.05
SPGHSSAGYEGEDTLRRRLLAPEA [Q9Y]	3.68
SPGHSSAGLEGEDTLRRRLLAPEA [Q9L]	3.58
SPGHSSAGEEGEDTLRRRLLAPEA [Q9E]	4.31
SPGHSSAGCEGEDTLRRRLLAPEA [Q9C]	3.22
SPGHSSAGMEGEDTLRRRLLAPEA [Q9M]	3.43
SPGHSSAGDEGEDTLRRRLLAPEA [Q9D]	3.84
SPGHSSAGGEGEDTLRRRLLAPEA [Q9G]	2.94
SPGHSSAGTEGEDTLRRRLLAPEA [Q9T]	3.96
SPGHSSAGFEGEDTLRRRLLAPEA [Q9F]	4.11
SPGHSSAGIEGEDTLRRRLLAPEA [Q9I]	4.08
SPGHSSAGWEGEDTLRRRLLAPEA [Q9W]	3.04
